Results as given in patent US20240325556A1, “Methods of Using Antibody-Drug-Conjugates” (priority 2021, published 2024).
Like-named read-outs stand apart in the source and are kept apart here. Square brackets hold non-standard residues; d marks the D form. Peptide text beside a SMILES is read from it. * marks the point of attachment. Dolaproine = CO[C@@H]([C@@H]1CCCN1)[C@@H](C)C(=O)O; Dil = CC[C@H](C)[C@H](NC)[C@@H](CC(=O)O)OC; X1 = C[C@@H](N*)[C@@H](O)c1ccccc1; NMeV = CN[C@H](C(=O)O)C(C)C

Assays:
[1] = system: NCI-H1781 cells; assay: In vitro cytotoxicity assay against nectin-4-expressing cell line NCI-H1781; format: cell-based; settings: for IC50: NCI-H1781 cells, 5 days incubation, CellTiter-Glo viability, read-out: Absolute IC50
Description: Cell lines were plated on Day −1 in 96-well plates (Corning #3603) at a density of 4×10^3 cells/well in 100 μL of growth media and cultured overnight. On Day 0, serial dilution of test samples was performed in growth media at 6× the final concentration and 20 μL was added to the cells. After incubation at 37° C. with 5% CO2 for 5 days, viability was measured using Promega CellTiter-Glo® according to the manufacturer's recommendations.
Methods: Free payloads (MMAE and camptothecin) and nectin-4 ADCs carrying either MMAE, camptothecin, or maytansine were produced and tested in an in vitro cytotoxicity assay against the nectin-4-expressing cell line, NCI-H1781 (FIG. 1).

[2] = Toxicokinetic analysis of rat plasma samples (total antibody and total ADC ELISA); format: in vivo; settings: repeat dose toxicity study, listed as RED-106 conjugate
Description: (§1) Male Sprague-Dawley rats (8-9 wk old at study start, 5 animals/group) were dosed intravenously with either vehicle alone or with nectin-4 conjugates made using antibodies carrying the variable regions of the rat cross-reactive antibody, enfortumab. The tested ADCs were nectin-4 vedotin (dosed at 10 mg/kg), and nectin-4 CH1/CT RED-106 (dosed at either 10 or 20 mg/kg). Dosing occurred weekly for a total of 4 doses (days 1, 8, 15, and 22). […] Body weights were recorded four times/week. Blood was collected from all animals for clinical pathology on days 5, 12, 19, and 26, and for toxicokinetic analysis at 8 h and days 4 and 7 post-dose (for all doses). Clinical observations were conducted daily.
Methods: Total antibody and total ADC concentrations were quantified by ELISA as previously described and diagrammed in the figure. For total antibody, conjugates were captured with an anti-human IgG-specific antibody and detected with an HRP-conjugated anti-human Fc-specific antibody. For total ADC, conjugates were captured with an anti-human Fab-specific antibody and detected with a mouse anti-maytansine primary antibody, followed by an HRP-conjugated anti-mouse IgG-subclass 1-specific secondary antibody. Bound secondary antibody was detected using Ultra TMB One-Step ELISA substrate (Thermo Fisher). […] Data were analyzed using GraphPad Prism and Microsoft Excel software.

[3] = system: Male Sprague-Dawley rats; assay: Non-GLP rat toxicology study of nectin-4 ADCs; format: in vivo; settings: 4 doses
Description: as §1
Methods: Rat cross-reactive nectin-4 ADCs carrying either RED-106 or vedotin linker-payloads were prepared (DAR depicted in FIGS. 8A-8D) and tested in a rat toxicity study.

[4] = 10 mg/kg weekly for four doses; cited from earlier work
[5] = preclinical and clinical effects; cited from earlier work

Molecule: N.N.[Cl][Pt][Cl] [Cisplatin]
- IC50 [1]: 230 nM

Molecule: CC[C@@]1(O)C(=O)OCc2c1cc1n(c2=O)Cc2cc3ccccc3nc2-1 [Free Camptothecin, camptothecin]
- IC50 ([1]; 120 h): 1 nM

Molecule: CC[C@H](C)[C@@H]([C@@H](CC(=O)N1CCC[C@H]1[C@H](OC)[C@@H](C)C(=O)N[C@H](C)[C@@H](O)c1ccccc1)OC)N(C)C(=O)[C@@H](NC(=O)[C@@H](NC)C(C)C)C(C)C [Free MMAE, monomethyl auristatin E] (H-[NMeV]V[Dil][Dolaproine]-X1)
- IC50 [1]: 0.3 nM

Molecule: Nectin-4 CH1/CT RED-106: nectin-4 ADC with variable regions of enfortumab, CH1/CT aldehyde-tagged, carrying RED-106 maytansine linker-payload
- IC50 [1]: 1 nM
- In vitro potency of RED-106 conjugate compared with MMAE conjugate ([1]; NCI-H1781 target cell line): similar
- In vivo stability of the conjugate compared with the vedotin ADC [2]: improved in vivo stability
- Mortality ([3]; 10 or 20 mg/kg i.v. weekly): no mortalities
- Signs of fur/skin toxicity compared with vedotin conjugate ([3]; 10 or 20 mg/kg i.v. weekly): fewer signs of fur/skin toxicity

Molecule: nectin-4 vedotin: nectin-4 conjugate with enfortumab variable regions, untagged antibody conjugated with maleimide-valcit-MMAE [reference compound]
- Toxicity noted in previous reports [4]: fur and skin toxicity and mortality
- Clinical signs of toxicity in fur and skin ([3]; 10 mg/kg i.v. weekly): all animals exhibited clinical signs of toxicity in fur and skin
- Animals euthanized in distress ([3]; 10 mg/kg i.v. weekly, 5 animals/group): 1 animal

B1: DS-1062 (conjugate, chains of the INN, looked up)
VH: QVQLVQSGAEVKKPGASVKVSCKASGYTFTTAGMQWVRQAPGQGLEWMGWINTHSGVPKYAEDFKGRVTISADTSTSTAYLQLSSLKSEDTAVYYCARSGFGSSYWYFDVWGQGTLVTVSS
VL: DIQMTQSPSSLSASVGDRVTITCKASQDVSTAVAWYQQKPGKAPKLLIYSASYRYTGVPSRFSGSGSGTDFTLTISSLQPEDFAVYYCQQHYITPLTFGQGTKLEIK
modifications: deruxtecan payload
- Toxicity noted in previous reports [5]: skin and mucosal toxicity
